Measurements: publication PMC9063845
Each block holds one substance with its values, some of them ahead of it.

Legend:
Experiment in all cases: SEC; preparative HiLoad 16/600 Superdex 200 pg (120 ml), 20 mM HEPES, 50 mM NaCl pH 7.5; elution at ~85 ml compared with protein standards (~60 kDa)
[1] = target: gfasPurple (Galaxea fascicularis)
[2] = target: spisPink (Stylophora pistillata)
[3] = target: eforRed (Echinopora forsaliana)
[4] = target: amilCP (Acropora millepora)

stoichiometry N [1]: 2
Substance: gfasPurple (natural protein)

stoichiometry N [2]: 2
Substance: spisPink (natural protein)

stoichiometry N [3]: 2
Substance: eforRed (natural protein)

stoichiometry N [4]: 2
Substance: amilCP (natural protein)
